Assay results from IntAct's records for PubMed 23602662.

B1: OX-2 membrane glycoprotein (Mus musculus), O54901 (parent)
chain: MGSLVFRRPFCHLSTYSLIWGMAAVALSTAQVEVVTQDERKALHTTASLRCSLKTSQEPLIVTWQKKKAVSPENMVTYSKTHGVVIQPAYKDRINVTELGLWNSSITFWNTTLEDEGCYMCLFNTFGSQKVSGTACLTLYVQPIVHLHYNYFEDHLNITCSATARPAPAISWKGTGTGIENSTESHFHSNGTTSVTSILRVKDPKTQVGKEVICQVLYLGNVIDYKQSLDKGFWFSVPLLLSIVSLVILLVLISILLYWKRHRNQERGESSQGMQRMK
partner: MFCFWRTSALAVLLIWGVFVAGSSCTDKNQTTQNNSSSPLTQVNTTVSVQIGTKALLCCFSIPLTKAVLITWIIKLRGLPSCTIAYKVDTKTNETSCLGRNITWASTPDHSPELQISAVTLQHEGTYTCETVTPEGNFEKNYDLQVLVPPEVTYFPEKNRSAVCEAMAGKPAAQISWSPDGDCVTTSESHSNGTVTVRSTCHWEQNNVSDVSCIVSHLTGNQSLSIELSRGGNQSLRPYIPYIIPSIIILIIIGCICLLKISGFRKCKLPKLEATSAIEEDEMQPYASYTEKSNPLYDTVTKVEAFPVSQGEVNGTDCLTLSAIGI
B2: Cell surface glycoprotein CD200 receptor 4 (Mus musculus), Q6XJV4 (parent)
chain: MHALGRIPTLTLLIFINIFVSGSSCTDENQTIQNDSSSSLTQVNTTMSVQMDKKALLCCFSSPLINAVLITWIIKHRHLPSCTIAYNLDKKTNETSCLGRNITWASTPDHSPELQISAVALQHEGTYTCEIVTPEGNLEKVYDLQVLVPPEVTYFPGKNRTAVCEAMAGKPAAQISWTPDGDCVTKSESHSNGTVTVRSTCHWEQNNVSVVSCLVSHSTGNQSLSIELSQGTMTTPRSLLTILYVKMALLVIILLNVGFAFFQKRNFART
partner: B1 chain

Variants of: B1
Details: with mo2r1_mouse Cd200r1, Q9ES57

Row | Variant | effect of a mutation on the interaction
1 | MGSLVFRRPFCHLSTYSLIWGMAAVALSTAQVEVVTQDERKALHTTASLRCSLKTSQEPKIVTWQKKKAVSPENMVTYSKTHGVVIQPAYKDRINVTELGLWNSSITFWNTTLEDEGCYMCLFNTFGSQKVSGTACLTLYVQPIVHLHYNYFEDHLNITCSATARPAPAISWKGTGTGIENSTESHFHSNGTTSVTSILRVKDPKTQVGKEVICQVLYLGNVIDYKQSLDKGFWFSVPLLLSIVSLVILLVLISILLYWKRHRNQERGESSQGMQRMK [L60K] | disrupting interaction strength
2 | MGSLVFRRPFCHLSTYSLIWGMAAVALSTAQVEVVTQDERKALHTTASLRCSLKTSQEPLEVTWQKKKAVSPENMVTYSKTHGVVIQPAYKDRINVTELGLWNSSITFWNTTLEDEGCYMCLFNTFGSQKVSGTACLTLYVQPIVHLHYNYFEDHLNITCSATARPAPAISWKGTGTGIENSTESHFHSNGTTSVTSILRVKDPKTQVGKEVICQVLYLGNVIDYKQSLDKGFWFSVPLLLSIVSLVILLVLISILLYWKRHRNQERGESSQGMQRMK [I61E] | disrupting interaction strength
3 | MGSLVFRRPFCHLSTYSLIWGMAAVALSTAQVEVVTQDERKALHTTASLRCSLKTSQEPLIVTWQKKKAVSPENMVTYSKTHGVVIQPAYKDRINVTELGLWNSSITFWNTTLEDEGCYMCLFKTFGSQKVSGTACLTLYVQPIVHLHYNYFEDHLNITCSATARPAPAISWKGTGTGIENSTESHFHSNGTTSVTSILRVKDPKTQVGKEVICQVLYLGNVIDYKQSLDKGFWFSVPLLLSIVSLVILLVLISILLYWKRHRNQERGESSQGMQRMK [N124K] | disrupting interaction strength
4 | MGSLVFRRPFCHLSTYSLIWGMAAVALSTAQVEVVTQDERKALHTTASLRCSLKTSQEPLIVTWQKKKAVSPENMVTYSKTHGVVIQPAYKDRINVTELGLWNSSITFWNTTLEDEGCYMCAFNTFGSQKVSGTACLTLYVQPIVHLHYNYFEDHLNITCSATARPAPAISWKGTGTGIENSTESHFHSNGTTSVTSILRVKDPKTQVGKEVICQVLYLGNVIDYKQSLDKGFWFSVPLLLSIVSLVILLVLISILLYWKRHRNQERGESSQGMQRMK [L122A] | disrupting interaction strength
5 | MGSLVFRRPFCHLSTYSLIWGMAAVALSTAQVEVVTQDERKALHTTASLRCSLKTSQEPLIVTWQKKKAVSPENMVTYSKTHGVVIQPAYKDRINVTELGLWNSSITFWNTTLEDEGCYMCLFNTAGSQKVSGTACLTLYVQPIVHLHYNYFEDHLNITCSATARPAPAISWKGTGTGIENSTESHFHSNGTTSVTSILRVKDPKTQVGKEVICQVLYLGNVIDYKQSLDKGFWFSVPLLLSIVSLVILLVLISILLYWKRHRNQERGESSQGMQRMK [F126A] | disrupting interaction strength

Next, values leading:

Row | effect of a mutation on the interaction | Variant
6 | disrupting interaction strength | MGSLVFRRPFCHLSTYSLIWGMAAVALSTAQVEVVTQDERKALHTTASLRCSLKTSQEPLIVTWQKKKAVSPEAMVTYSKTHGVVIQPAYKDRINVTELGLWNSSITFWNTTLEDEGCYMCLFNTFGSQKVSGTACLTLYVQPIVHLHYNYFEDHLNITCSATARPAPAISWKGTGTGIENSTESHFHSNGTTSVTSILRVKDPKTQVGKEVICQVLYLGNVIDYKQSLDKGFWFSVPLLLSIVSLVILLVLISILLYWKRHRNQERGESSQGMQRMK [N74A]
7 | disrupting interaction strength | MGSLVFRRPFCHLSTYSLIWGMAAVALSTAQVEVVTQDERKALHTTASLRCSLKTSQEPLIVTWQKKKAVSPEDMVTYSKTHGVVIQPAYKDRINVTELGLWNSSITFWNTTLEDEGCYMCLFNTFGSQKVSGTACLTLYVQPIVHLHYNYFEDHLNITCSATARPAPAISWKGTGTGIENSTESHFHSNGTTSVTSILRVKDPKTQVGKEVICQVLYLGNVIDYKQSLDKGFWFSVPLLLSIVSLVILLVLISILLYWKRHRNQERGESSQGMQRMK [N74D]
8 | disrupting interaction strength | MGSLVFRRPFCHLSTYSLIWGMAAVALSTAQVEVVTQDERKALHTTASLRCSLKTSQEPLIVTWQKKKAVSPENMVTYSKTHGVVIQPAYKDRINVTELGLWNSSITFWNTTLEDEGCYMCLFNTFGSQEVSGTACLTLYVQPIVHLHYNYFEDHLNITCSATARPAPAISWKGTGTGIENSTESHFHSNGTTSVTSILRVKDPKTQVGKEVICQVLYLGNVIDYKQSLDKGFWFSVPLLLSIVSLVILLVLISILLYWKRHRNQERGESSQGMQRMK [K130E]
9 | disrupting interaction strength | MGSLVFRRPFCHLSTYSLIWGMAAVALSTAQVEVVTQDERKALHTTASLRCSLKTSQEPLIVTWQKKKAVSPENMVTYSKTHGVVIQPAYKDRINVTELGLWNSSITFWNTTLEDEGCYMCLFNTDGSQKVSGTACLTLYVQPIVHLHYNYFEDHLNITCSATARPAPAISWKGTGTGIENSTESHFHSNGTTSVTSILRVKDPKTQVGKEVICQVLYLGNVIDYKQSLDKGFWFSVPLLLSIVSLVILLVLISILLYWKRHRNQERGESSQGMQRMK [F126D]

Variants of: B2
Details: with ox2g_mouse Cd200, O54901

Row | effect of a mutation on the interaction | Variant
10 | increasing interaction strength | MHALGRIPTLTLLIFINIFVSGSSCTDENQTIQNDSSSSLTQVNTTMSVQMDKKALLCCFSSPLINAVLITWIIKHRHLPSCTIAYNLDKKTNETSCLGRNITWASTPDHSPELQISAVALQHEGTYTCEIVTPEGNFEKVYDLQVLVPPEVTYFPGKNRTAVCEAMAGKPAAQISWTPDGDCVTKSESHSNGTVTVRSTCHWEQNNVSVVSCLVSHSTGNQSLSIELSQGTMTTPRSLLTILYVKMALLVIILLNVGFAFFQKRNFART [L138F]
11 | increasing interaction strength | MHALGRIPTLTLLIFINIFVSGSSCTDENQTIQNDSSSSLTQVNTTMSVQMDKKALLCCFSSPLINAVLITWIIKHRHLPSCTIAYKLDTKTNETSCLGRNITWASTPDHSPELQISAVALQHEGTYTCEIVTPEGNFEKVYDLQVLVPPEVTYFPGKNRTAVCEAMAGKPAAQISWTPDGDCVTKSESHSNGTVTVRSTCHWEQNNVSVVSCLVSHSTGNQSLSIELSQGTMTTPRSLLTILYVKMALLVIILLNVGFAFFQKRNFART [N87K;K90T;L138F]
12 | increasing interaction strength | MHALGRIPTLTLLIFINIFVSGSSCTDENQTIQNDSSSSLTQVNTTMSVQMDKKALLCCFSSPLINAVLITWIIKHRHLPSCTIAYKLDTKTNETSCLGRNITWASTPDHSPELQISAVALQHEGTYTCEIVTPEGNLEKVYDLQVLVPPEVTYFPGKNRTAVCEAMAGKPAAQISWTPDGDCVTKSESHSNGTVTVRSTCHWEQNNVSVVSCLVSHSTGNQSLSIELSQGTMTTPRSLLTILYVKMALLVIILLNVGFAFFQKRNFART [N87K;K90T]
